Test results as given in the supplement of paper PMC5998384.

Key:
HeLa Kyoto [1] = assay: melting temperature (median over replicates), in situ; higher = more thermally stable
HeLa Kyoto [2] = assay: thermal stability score vs G1/S (z-score of summed log2 fold changes over temperatures); higher = more thermally stable than in G1/S
HeLa Kyoto [3] = assay: solubility change mitosis vs G1/S (difference of NP-40 vs SDS log2 ratios) (log2 ratio difference); higher = more soluble in mitosis
HeLa Kyoto [4] = assay: solubility in G1/S (NP-40 vs SDS abundance) (log2 ratio); higher = more soluble; details: cell cycle stage: G1/S
[5] = cell cycle stage: early G1 (4.5 h after nocodazole release)
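For melting temperature (median over replicates), in situ in this document: HeLa Kyoto cells synchronized by double thymidine or nocodazole block, proteins quantified by TMT10plex mass spectrometry, three independent biological replicates.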
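For solubility change mitosis vs G1/S (difference of NP-40 vs SDS log2 ratios) in this document: synchronized HeLa Kyoto cells (double thymidine block for G1/S, nocodazole release for mitosis), protein amounts in NP-40 versus SDS lysates quantified by mass spectrometry, three biological replicates.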
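For solubility in G1/S (NP-40 vs SDS abundance) in this document: HeLa Kyoto cells arrested at G1/S by double thymidine block, proteins quantified by TMT10plex mass spectrometry in mild NP-40 versus SDS extracts, three biological replicates.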
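For thermal stability score vs G1/S (z-score of summed log2 fold changes over temperatures) in this document: synchronized HeLa Kyoto cells, proteins quantified by TMT10plex mass spectrometry, three biological replicates, mitosis taken 0.5 h after nocodazole release, G1/S directly after double thymidine block.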

Sequence of MSI2 (chain, as listed by the source): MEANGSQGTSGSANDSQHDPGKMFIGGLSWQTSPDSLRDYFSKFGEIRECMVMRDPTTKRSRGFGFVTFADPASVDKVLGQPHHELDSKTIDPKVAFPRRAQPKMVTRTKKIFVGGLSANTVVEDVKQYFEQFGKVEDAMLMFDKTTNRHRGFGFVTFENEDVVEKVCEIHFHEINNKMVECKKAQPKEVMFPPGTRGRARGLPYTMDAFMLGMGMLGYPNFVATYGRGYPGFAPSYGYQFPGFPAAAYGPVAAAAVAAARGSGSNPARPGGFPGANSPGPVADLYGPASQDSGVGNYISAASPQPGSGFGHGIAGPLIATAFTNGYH

Substance | melting temperature (HeLa Kyoto [1]; cell cycle stage: G1/S) [°C] | melting temperature (HeLa Kyoto [1]; cell cycle stage: mitosis) [°C] | thermal stability score (HeLa Kyoto [2]; [5]) | thermal stability score (HeLa Kyoto [2]; cell cycle stage: mitosis) | solubility change mitosis (log2) (HeLa Kyoto [3]) | solubility in G1/S (log2) (HeLa Kyoto [4])
MARAGPAWLLLAIWVVLPSWLSSAKVSSLIERISDPKDLKKLLRTRNNVLVLYSKSEVAAENHLRLLSTVAQAVKGQGTICWVDCGDAESRKLCKKMKVDLSPKDKKVELFHYQDGAFHTEYNRAVTFKSIVAFLKDPKGPPLWEEDPGAKDVVHLDSEKDFRRLLKKEEKPLLIMFYAPWCSMCKRMMPHFQKAATQLRGHAVLAGMNVYSSEFENIKEEYSVRGFPTICYFEKGRFLFQYDNYGSTAEDIVEWLKNPQPPQPQVPETPWADEGGSVYHLTDEDFDQFVKEHSSVLVMFHAPWCGHCKKMKPEFEKAAEALHGEADSSGVLAAVDATVNKALAERFHISEFPTLKYFKNGEKYAVPVLRTKKKFLEWMQNPEAPPPPEPTWEEQQTSVLHLVGDNFRETLKKKKHTLVMFYAPWCPHCKKVIPHFTATADAFKDDRKIACAAVDCVKDKNQDLCQQEAVKGYPTFHYYHYGKFAEKYDSDRTELGFTNYIRALREGDHERLGKKKEEL [PDIA5] | 53.8 | 54.5 | 2.7 | 2.84 | -0.0327 | -0.136
MQRVSGLLSWTLSRVLWLSGLSEPGAARQPRIMEEKALEVYDLIRTIRDPEKPNTLEELEVVSESCVEVQEINEEEYLVIIRFTPTVPHCSLATLIGLCLRVKLQRCLPFKHKLEIYISEGTHSTEEDINKQINDKERVAAAMENPNLREIVEQCVLEPD [FAM96A] | 54.9 | 55.3 | 0.017 | -0.983 | 0.184 | 0.0285
MAAGGRMEDGSLDITQSIEDDPLLDAQLLPHHSLQAHFRPRFHPLPTVIIVNLLWFIHLVFVVLAFLTGVLCSYPNPNEDKCPGNYTNPLKVQTVIILGKVILWILHLLLECYIQYHHSKIRNRGYNLIYRSTRHLKRLALMIQSSGNTVLLLILCMQHSFPEPGRLYLDLILAILALELICSLICLLIYTVKIRRFNKAKPEPDILEEEKIYAYPSNITSETGFRTISSLEEIVEKQGDTIEYLKRHNALLSKRLLALTSSDLGCQPSRT [TMEM192] | 55.6 | 55.9 | 0.271 | -1.67 | -0.241 | 0.0852
MAAVQVVGSWPSVQPREAPREAIPERGNGFRLLSARLCALRPDDSSSARTEIHLLFDQLISENYSEGSGVAPEDVSALLVQACRLVPLNQNHLVSKVSQLIHHLLNRLQVIVDEQHLDFLLAYTISAIHQCSSWTHREILQALAALVYCNGSKCQKYLPELLGNTGLLMKLSDLAQSDPEVRRAAVHCMANLCLSVPGQPYLEEPYQNVCFQAFLTILQSPKSSDMDDITFCMLLQNALKGIQSLLNGGRMKLTQTDELGALLAVLKKFMFHGLPGLNIEMPTVLYPTPLPQYDGRTPIKPQQSESSASRPTLNKKKKSKVKPKKIQQGEEEEKESSGEIEAAPVTGTGRVNLHEGNTWCPSSLGVQSLPLDGSGAAEKDGVSSSFSSSSWKRVSSSESDFSDAEGGMQSKMRSYQAKVRQGALVCFLSTIKSIEKKVLYGYWSAFIPDTPELGSPQSVSLMTLTLKDPSPKTRACALQVLSAILEGSKQFLSVAEDTSDHRRAFTPFSVMIACSIRELHRCLLLALVAESSSQTVTQIIKCLANLVSNAPYDRLKLSLLTKVWNQIKPYIRHKDVNVRVSSLTLLGAIVSTHAPLPEVQLLLQQPCSSGLGNSNSATPHLSPPDWWKKAPAGPSLEETSVSSPKGSSEPCWLIRLCISIVVLPKEDSCSGSDAGSAAGSTYEPSPMRLEALQVLTLLARGYFSMTQAYLMELGEVICKCMGEADPSIQLHGAKLLEELGTGLIQQYKPDSTAAPDQRAPVFLVVMFWTMMLNGPLPRALQNSEHPTLQASACDALSSILPEAFSNLPNDRQMLCITVLLGLNDSKNRLVKAATSRALGVYVLFPCLRQDVIFVADAANAILMSLEDKSLNVRAKAAWSLGNLTDTLIVNMETPDPSFQEEFSGLLLLKMLRSAIEASKDKDKVKSNAVRALGNLLHFLQPSHIEKPTFAEIIEESIQALISTVLTEAAMKVRWNACYAMGNVFKNPALPLGTAPWTSQAYNALTSVVTSCKNFKVRIRSAAALSVPGKREQYGSVDQYARIWNALVTALQKSEDTIDFLEFKYCVSLRTQICQALIHLLSLASASDLPCMKETLELSGNMVQSYILQFLKSGAEGDDTGAPHSPQERDQMVRMALKHMGSIQAPTGDTARRAIMGFLEEILAVCFDSSGSQGALPGLTNQ [HEATR6] | 50.5 | 50.1 | -0.697 | 0.141 | -0.216 | 0.0502
MKLKLNVLTIILLPVHLLITIYSALIFIPWYFLTNAKKKNAMAKRIKAKPTSDKPGSPYRSVTHFDSLAVIDIPGADTLDKLFDHAVSKFGKKDSLGTREILSEENEMQPNGKVFKKLILGNYKWMNYLEVNRRVNNFGSGLTALGLKPKNTIAIFCETRAEWMIAAQTCFKYNFPLVTLYATLGKEAVVHGLNESEASYLITSVELLESKLKTALLDISCVKHIIYVDNKAINKAEYPEGFEIHSMQSVEELGSNPENLGIPPSRPTPSDMAIVMYTSGSTGRPKGVMMHHSNLIAGMTGQCERIPGLGPKDTYIGYLPLAHVLELTAEISCFTYGCRIGYSSPLTLSDQSSKIKKGSKGDCTVLKPTLMAAVPEIMDRIYKNVMSKVQEMNYIQKTLFKIGYDYKLEQIKKGYDAPLCNLLLFKKVKALLGGNVRMMLSGGAPLSPQTHRFMNVCFCCPIGQGYGLTESCGAGTVTEVTDYTTGRVGAPLICCEIKLKDWQEGGYTINDKPNPRGEIVIGGQNISMGYFKNEEKTAEDYSVDENGQRWFCTGDIGEFHPDGCLQIIDRKKDLVKLQAGEYVSLGKVEAALKNCPLIDNICAFAKSDQSYVISFVVPNQKRLTLLAQQKGVEGTWVDICNNPAMEAEILKEIREAANAMKLERFEIPIKVRLSPEPWTPETGLVTDAFKLKRKELRNHYLKDIERMYGGK [ACSL4] | 48.8 | 48.7 | 1.35 | 2.2 | -0.157 | -0.0428
MAASMARRLWPLLTRRGFRPRGGCISNDSPRRSFTTEKRNRNLLYEYAREGYSALPQLDIERFCACPEEAAHALELRKGELRSADLPAIISTWQELRQLQEQIRSLEEEKAAVTEAVRALLANQDSGEVQQDPKYQGLRARGREIRKELVHLYPREAQLEEQFYLQALKLPNQTHPDVPVGDESQARVLHMVGDKPVFSFQPRGHLEIGEKLDIIRQKRLSHVSGHRSYYLRGAGALLQHGLVNFTFNKLLRRGFTPMTVPDLLRGAVFEGCGMTPNANPSQIYNIDPARFKDLNLAGTAEVGLAGYFMDHTVAFRDLPVRMVCSSTCYRAETNTGQEPRGLYRVHHFTKVEMFGVTGPGLEQSSQLLEEFLSLQMEILTELGLHFRVLDMPTQELGLPAYRKFDIEAWMPGRGRFGEVTSASNCTDFQSRRLHIMFQTEAGELQFAHTVNATACAVPRLLIALLESNQQKDGSVLVPPALQSYLGTDRITAPTHVPLQYIGPNQPRKPGLPGQPAVS [SARS2] | 51.5 | 51.4 | 2.24 | 1.72 | -0.148 | 0.265
MEVLAAETTSQQERLQAIAEKRKRQAEIENKRRQLEDERRQLQHLKSKALRERWLLEGTPSSASEGDEDLRRQMQDDEQKTRLLEDSVSRLEKEIEVLERGDSAPATAKENAAAPSPVRAPAPSPAKEERKTEVVMNSQQTPVGTPKDKRVSNTPLRTVDGSPMMKAAMYSVEITVEKDKVTGETRVLSSTTLLPRQPLPLGIKVYEDETKVVHAVDGTAENGIHPLSSSEVDELIHKADEVTLSEAGSTAGAAETRGAVEGAARTTPSRREITGVQAQPGEATSGPPGIQPGQEPPVTMIFMGYQNVEDEAETKKVLGLQDTITAELVVIEDAAEPKEPAPPNGSAAEPPTEAASREENQAGPEATTSDPQDLDMKKHRCKCCSIM [PALM] | 55.2 | 57 | -0.779 | -1.02 | 0.116 | 0.0461
MPHRKERPSGSSLHTHGSTGTAEGGNMSRLSLTRSPVSPLAAQGIPLPAQLTKSNAPVHIDVGGHMYTSSLATLTKYPDSRISRLFNGTEPIVLDSLKQHYFIDRDGEIFRYVLSFLRTSKLLLPDDFKDFSLLYEEARYYQLQPMVRELERWQQEQEQRRRSRACDCLVVRVTPDLGERIALSGEKALIEEVFPETGDVMCNSVNAGWNQDPTHVIRFPLNGYCRLNSVQVLERLFQRGFSVAASCGGGVDSSQFSEYVLCREERRPQPTPTAVRIKQEPLD [KCTD15] | 56 | 56.9 | -2.02 | 0.00454 | -0.0635 | 0.447
MDLWPGAWMLLLLLFLLLLFLLPTLWFCSPSAKYFFKMAFYNGWILFLAVLAIPVCAVRGRNVENMKILRLMLLHIKYLYGIRVEVRGAHHFPPSQPYVVVSNHQSSLDLLGMMEVLPGRCVPIAKRELLWAGSAGLACWLAGVIFIDRKRTGDAISVMSEVAQTLLTQDVRVWVFPEGTRNHNGSMLPFKRGAFHLAVQAQVPIVPIVMSSYQDFYCKKERRFTSGQCQVRVLPPVPTEGLTPDDVPALADRVRHSMLTVFREISTDGRGGGDYLKKPGGGG [AGPAT1] | 53.3 | 52.7 | 0.708 | 0.125 | 0.0448 | -0.318
SPCS2 | 51.9 | 52.8 | -0.361 | -0.329 | -0.0337 | 0.173
MSEVTKNSLEKILPQLKCHFTWNLFKEDSVSRDLEDRVCNQIEFLNTEFKATMYNLLAYIKHLDGNNEAALECLRQAEELIQQEHADQAEIRSLVTWGNYAWVYYHLGRLSDAQIYVDKVKQTCKKFSNPYSIEYSELDCEEGWTQLKCGRNERAKVCFEKALEEKPNNPEFSSGLAIAMYHLDNHPEKQFSTDVLKQAIELSPDNQYVKVLLGLKLQKMNKEAEGEQFVEEALEKSPCQTDVLRSAAKFYRRKGDLDKAIELFQRVLESTPNNGYLYHQIGCCYKAKVRQMQNTGESEASGNKEMIEALKQYAMDYSNKALEKGLNPLNAYSDLAEFLETECYQTPFNKEVPDAEKQQSHQRYCNLQKYNGKSEDTAVQHGLEGLSISKKSTDKEEIKDQPQNVSENLLPQNAPNYWYLQGLIHKQNGDLLQAAKCYEKELGRLLRDAPSGIGSIFLSASELEDGSEEMGQGAVSSSPRELLSNSEQLN [IFIT3] | 48.2 | 49 | -0.282 | 1.1 | -0.0471 | 0.357
MAAAMPLALLVLLLLGPGGWCLAEPPRDSLREELVITPLPSGDVAATFQFRTRWDSELQREGVSHYRLFPKALGQLISKYSLRELHLSFTQGFWRTRYWGPPFLQAPSGAELWVWFQDTVTDVDKSWKELSNVLSGIFCASLNFIDSTNTVTPTASFKPLGLANDTDHYFLRYAVLPREVVCTENLTPWKKLLPCSSKAGLSVLLKADRLFHTSYHSQAVHIRPVCRNARCTSISWELRQTLSVVFDAFITGQGKKDWSLFRMFSRTLTEPCPLASESRVYVDITTYNQDNETLEVHPPPTTTYQDVILGTRKTYAIYDLLDTAMINNSRNLNIQLKWKRPPENEAPPVPFLHAQRYVSGYGLQKGELSTLLYNTHPYRAFPVLLLDTVPWYLRLYVHTLTITSKGKENKPSYIHYQPAQDRLQPHLLEMLIQLPANSVTKVSIQFERALLKWTEYTPDPNHGFYVSPSVLSALVPSMVAAKPVDWEESPLFNSLFPVSDGSNYFVRLYTEPLLVNLPTPDFSMPYNVICLTCTVVAVCYGSFYNLLTRTFHIEEPRTGGLAKRLANLIRRARGVPPL [PIGT] | 53.8 | 52.5 | 1.75 | 1.86 | -0.141 | 0.0123
MSI2 | 51 | 50.8 | -0.0604 | -1.64 | 0.0111 | 0.473
